The results in this text go back to patent publication US20180327746, “Alpha-AMYLASE-BINDING NUCLEIC ACID MOLECULE AND USE THEREOF” (NEC Solution Innovators, Ltd., published 2018).

In series [1] the target is T1, alpha-amylase (Homo sapiens, UniProt P0DUB6 P0DUB6:16-511).
T1 sequence: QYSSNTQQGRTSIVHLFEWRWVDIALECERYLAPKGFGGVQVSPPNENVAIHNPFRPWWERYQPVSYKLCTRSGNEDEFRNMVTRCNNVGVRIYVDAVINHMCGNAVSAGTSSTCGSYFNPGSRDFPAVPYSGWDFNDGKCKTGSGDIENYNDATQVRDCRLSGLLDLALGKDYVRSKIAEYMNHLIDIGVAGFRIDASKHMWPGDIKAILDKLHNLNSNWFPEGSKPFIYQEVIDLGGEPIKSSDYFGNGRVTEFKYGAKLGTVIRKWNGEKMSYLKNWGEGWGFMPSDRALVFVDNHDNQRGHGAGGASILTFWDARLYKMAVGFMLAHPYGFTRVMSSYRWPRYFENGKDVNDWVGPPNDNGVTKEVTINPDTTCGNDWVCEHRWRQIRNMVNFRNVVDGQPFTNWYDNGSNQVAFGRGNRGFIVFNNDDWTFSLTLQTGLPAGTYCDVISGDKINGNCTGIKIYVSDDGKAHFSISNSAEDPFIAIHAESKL
The series can be described thus: SPR; SPR buffer with 1 mM MgCl2, pH 7.4; Chi2 3.85. Particulars: tags: none stated; commercial human alpha-amylase, Lee Biosolutions; label: 3' poly(dA)20 captured on biotin-poly(dT)20. As to the method:
(§1) Biotinylated poly(dT) at 5 μmol/L was injected to a flow cell of the sensor chip using ultrapure water (DDW), and the binding was allowed to proceed until the signal intensity (RU: Resonance Unit) reached about 900 RU. The biotinylated poly(dT) was prepared by biotinylating the 5′ end of 20-mer deoxythymidine. Then, the poly(dA)-added aptamer at 200 nmol/L was injected to the flow cell of the chip using an SPR buffer at a flow rate of 25 μL/min for 80 seconds, and the binding was allowed to proceed until the signal intensity reached about 800 RU. […] With 0 seconds being the start of the injection, the mean value of signal intensities from 115 seconds to 125 seconds was determined. […] Then, the value (B/A) obtained by dividing the protein binding measured value (B) by the aptamer immobilization measured value (A) was determined as a relative value (Relative Unit).
(§2) The binding ability of the aptamers was analyzed by SPR in the same manner as in Example 1, except that the concentration of the α-amylase in the specimen was set to a plurality of values. The concentration was set to 20 nmol/L, 10 nmol/L, 5 nmol/L, 2.5 nmol/L, and 1.25 nmol/L. Then, from the results obtained by the SPR analysis, the kinetic parameter and the chi-squared value were calculated.

For series [2], the target named is T1, alpha-amylase. The series can be described thus: SPR; SPR buffer with 1 mM MgCl2, pH 7.4; Chi2 31.8; text says all Kd 17 nM or less. Particulars: tags: none stated; commercial human alpha-amylase, Lee Biosolutions; label: 3' poly(dA)20 captured on biotin-poly(dT)20. As to the method: Then, the poly(dA)-added aptamer at 200 nmol/L was injected to the flow cell of the chip using an SPR buffer at a flow rate of 25 μL/min for 80 seconds, and the binding was allowed to proceed until the signal intensity reached about 800 RU. […] Subsequently, the specimen was injected using the SPR buffer at a flow rate of 50 μL/min for 120 seconds, followed by washing performed by flowing the SPR buffer under the same conditions for 300 seconds. The concentration of the human α-amylase in the specimen was set to 400 nmol/L. Signal intensity measurement was performed concurrently with the injection of the specimen and the washing with the SPR buffer. With 0 seconds being the start of the injection, the mean value of signal intensities from 115 seconds to 125 seconds was determined. […] Then, the value (B/A) obtained by dividing the protein binding measured value (B) by the aptamer immobilization measured value (A) was determined as a relative value (Relative Unit).
as §2

The target in series [3] is T1, alpha-amylase. The series can be described thus: SPR; SPR buffer with 1 mM MgCl2, pH 7.4; Chi2 3.26. Particulars: tags: none stated; commercial human alpha-amylase, Lee Biosolutions; label: 3' poly(dA)20 captured on biotin-poly(dT)20. On the procedure: as §1, §2
The target in series [4] is T1, alpha-amylase. The series can be described thus: SPR; SPR buffer with 1 mM MgCl2, pH 7.4; Chi2 5.05. Particulars: tags: none stated; commercial human alpha-amylase, Lee Biosolutions; label: 3' poly(dA)20 captured on biotin-poly(dT)20. As to the method: as §1, §2
In series [5] the target is T1, alpha-amylase. The series is described as follows: SPR; SPR buffer with 1 mM MgCl2, pH 7.4; Chi2 4.3. The following applies: tags: none stated; commercial human alpha-amylase, Lee Biosolutions; label: 3' poly(dA)20 captured on biotin-poly(dT)20. As to the method: as §1, §2
Series [6] has as its target T1, alpha-amylase. The series can be described thus: SPR; SPR buffer with 1 mM MgCl2, pH 7.4; Chi2 4.17. The following applies: tags: none stated; commercial human alpha-amylase, Lee Biosolutions; label: 3' poly(dA)20 captured on biotin-poly(dT)20. As to the method: as §1, §2
Series [7] has as its target T1, alpha-amylase. The series is described as follows: capillary electrophoresis; 200 nM aptamer, 2 uM amylase, 40 mM HEPES pH 7.5, 1 mM MgCl2. The following applies: tags: none stated; commercial human alpha-amylase, Lee Biosolutions; label: 5' TYE665. As to the method: (§3) Reaction solutions containing the labeled aptamer (SEQ ID NO: 1) were prepared. Each of the reaction solutions was subjected to CAE under the following conditions. The reaction solution was caused to migrate while separating the components therefrom, and the fluorescence at a maximum absorption wavelength (665 nm) of the fluorescent substance was measured. As the reaction solutions, the following four types of reaction solutions were used: a reaction solution 1 containing the labeled aptamer only; a reaction solution 2 containing the labeled aptamer and the α-amylase; a reaction solution 3 containing the labeled aptamer and the saliva; and a reaction solution 4 containing the labeled aptamer as the negative control and the saliva. In each of the reaction solutions, the concentration of the labeled aptamer was 200 nmol/L. In the reaction solution 2, the concentration of the α-amylase was 2 μmol/L. In the reaction solutions 3 and 4, the concentration of the saliva was 10%. The reminder of each of the reaction solutions was a buffer solution. The composition of the buffer solution was as follows: 40 mmol/L HEPES (pH 7.5), 125 mmol/L NaCl, 5 mmol/L KCl, and 1 mmol/L MgCl₂.

Another series addresses T2, chromogranin A (CgA) (Homo sapiens, UniProt P10645 P10645:19-457).
T2 sequence: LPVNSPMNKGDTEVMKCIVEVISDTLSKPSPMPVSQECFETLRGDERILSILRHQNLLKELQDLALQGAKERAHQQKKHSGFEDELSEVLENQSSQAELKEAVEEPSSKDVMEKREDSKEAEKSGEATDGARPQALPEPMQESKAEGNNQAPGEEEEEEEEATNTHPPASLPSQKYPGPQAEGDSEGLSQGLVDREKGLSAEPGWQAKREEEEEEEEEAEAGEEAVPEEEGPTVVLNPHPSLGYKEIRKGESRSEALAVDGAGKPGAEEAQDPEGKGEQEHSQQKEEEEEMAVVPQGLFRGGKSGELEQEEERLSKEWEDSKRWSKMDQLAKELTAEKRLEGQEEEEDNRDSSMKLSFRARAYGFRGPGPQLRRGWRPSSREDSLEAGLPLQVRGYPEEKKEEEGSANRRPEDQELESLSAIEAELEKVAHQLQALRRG
The series is described as follows: capillary electrophoresis specificity control. Particulars: tags: N-terminal His-tag; full length, Creative BioMart CHGA-26904TH; label: 5' TYE665. On the procedure: as §3
Preparation of the reaction solution 2 and the binding ability analysis by CAE were carried out in the same manner as in the above item (3), except that the labeled aptamers (SEQ ID NOs: 1, 2, 3, and 19) were used. Further, in order to examine the specificity of the labeled aptamers to the α-amylase, the binding ability analysis by CAE was performed in the same manner as in the case where the above-described reaction solution 2 was used, except that, instead of the α-amylase, human chromogranin A (CgA, recombinant full length protein, Creative BioMart, #CHGA-26904TH) or human IgA (secretory, Biomedicals, LLC-Cappel Products, #55905), each having a His-tag fused at the N terminus were used.

Series [8] has as its target T1, alpha-amylase. The series can be described thus: SPR; SPR buffer with 1 mM MgCl2, pH 7.4; Chi2 30.79. Particulars: tags: none stated; commercial human alpha-amylase, Lee Biosolutions; label: 3' poly(dA)20 captured on biotin-poly(dT)20. On the procedure: as §1, §2
In series [9] the target is T1, alpha-amylase. The series can be described thus: SPR; SPR buffer with 1 mM MgCl2, pH 7.4; Chi2 10.58. The following applies: tags: none stated; commercial human alpha-amylase, Lee Biosolutions; label: 3' poly(dA)20 captured on biotin-poly(dT)20. As to the method: as §1, §2
Series [10] concerns the target T1, alpha-amylase. The series can be described thus: SPR; SPR buffer with 1 mM MgCl2, pH 7.4; Chi2 24.55. Particulars: tags: none stated; commercial human alpha-amylase, Lee Biosolutions; label: 3' poly(dA)20 captured on biotin-poly(dT)20. As to the method: as §1, §2
Series [11] deals with T1, alpha-amylase. The series can be described thus: SPR; SPR buffer with 1 mM MgCl2, pH 7.4; Chi2 23.87. Particulars: tags: none stated; commercial human alpha-amylase, Lee Biosolutions; label: 3' poly(dA)20 captured on biotin-poly(dT)20. On the procedure:
as §1, §2

B1: Amy_258KK10R8m1 (ssDNA)
DNA: GGTTACGCCCAGGACACATTTCAAAAGATGATGGCATACGTAAAGGGTCGAGGTAAGCTCGGTCTCCTCGGATAATCAAAAAAAAAAAAAAAAAAAA
modifications: KK10 modified T (formula 2) at double-underlined T, i.e. T 3' of the 5' primer region
Consider B1, for which, in the series with alpha-amylase [1], binding was put at a Kd of 2.72 nM.

B2: AML1243KR8m3 (ssDNA)
DNA: GGATACCTTAACGCCGCCTATTGCGAGGTGTGGCTAGTCGTTATAGGTCCACCGAGTTGCACCCGTCTCGAAATCAAAAAAAAAAAAAAAAAAAA
modifications: KS9 modified T (formula 1) at underlined T, i.e. T 3' of the 5' primer region
B2 returned a Kd with alpha-amylase [2] of 19.9 nM.

B3: AML1243KR8m1s58_FW_s20 (ssDNA)
DNA: TACCTTAACGCCGCCTATTGTGAACGACGTGAATAGTGTTTGTGGGTCCGGAGTTAAAAAAAAAAAAAAAAAAAA
modifications: KS9 modified T (formula 1) at underlined T, i.e. T 3' of the 5' primer region
On to B3, for which the affinity with alpha-amylase [3], expressed as Kd, was 0.707 nM. That is a sub-nanomolar value.

B4: Amy_258KK10R8m2 (ssDNA)
DNA: GGTTACGCCCAGGACACATTTCATTGATGGCATACTAAGGGTCGAGGAATTCGTAAGCTCGGTCTCCTCGGATAATCAAAAAAAAAAAAAAAAAAAA
modifications: KK10 modified T (formula 2) at double-underlined T, i.e. T 3' of the 5' primer region
As to B4, binding with alpha-amylase [4] was characterised by a dissociation constant (Kd) of 2.3 nM.

B5: AML1243KR8m1 (ssDNA)
DNA: GGATACCTTAACGCCGCCTATTGTGAACGACGTGAATAGTGTTTGTGGGTCCGGAGTTGCACCCGTCTCGAAATCAAAAAAAAAAAAAAAAAAAA
modifications: KS9 modified T (formula 1) at underlined T, i.e. T 3' of the 5' primer region
On to B5, for which, in the series with alpha-amylase [5], the Kd worked out at 0.805 nM.

B6: AML1243KR8m1s65_FW_s20 (ssDNA)
DNA: TACCTTAACGCCGCCTATTGTGAACGACGTGAATAGTGTTTGTGGGTCCGGAGTTGCACCCGAAAAAAAAAAAAAAAAAAAA
modifications: KS9 modified T (formula 1) at underlined T, i.e. T 3' of the 5' primer region
The molecule B6 had a dissociation constant Kd with alpha-amylase [6] of 0.68 nM.

B7: TYE665-AML1243KR8m1 (ssDNA)
DNA: GGATACCTTAACGCCGCCTATTGTGAACGACGTGAATAGTGTTTGTGGGTCCGGAGTTGCACCCGTCTCGAAATC
modifications: KS9 modified T (formula 1) at underlined T, i.e. T 3' of the 5' primer region
For B7, the binding result was “binds” with alpha-amylase [7] and “no binding” with chromogranin A (CgA).

B8: AML1243KR8m3s63Fw_s15 (ssDNA)
DNA: TAACGCCGCCTATTGCGAGGTGTGGCTAGTCGTTATAGGTCCACCGAGTTGCACCAAAAAAAAAAAAAAAAAAAA
modifications: KS9 modified T (formula 1) at underlined T, i.e. T 3' of the 5' primer region
In the series with alpha-amylase [8], B8 returned a Kd of 18.7 nM.

B9: AML1243KR8m1_KS9-3_mini (ssDNA)
DNA: GTGAACGACGTGAATAGTGTTTGTGGGTCCGGAGTTAAAAAAAAAAAAAAAAAAAA
modifications: KS9 modified T (formula 1) at all T
Molecule B9 returned a Kd with alpha-amylase [9] of 0.607 nM.

B10: AML1243KR8m2s49Fw_s15 (ssDNA)
DNA: TAACGCCGCCTATTGCTATGAGTAGTGTTTGTAGGTCTGGCAAAAAAAAAAAAAAAAAAAA
modifications: KS9 modified T (formula 1) at underlined T, i.e. T 3' of the 5' primer region
With B10, binding with alpha-amylase [10] was put at a Kd of 2.66 nM.

B11: AML1243KR8m2 (ssDNA)
DNA: GGATACCTTAACGCCGCCTATTGCTATGAGTAGTGTTTGTAGGTCTGGCATGCGAGTTGCACCCGTCTCGAAATCAAAAAAAAAAAAAAAAAAAA
modifications: KS9 modified T (formula 1) at underlined T, i.e. T 3' of the 5' primer region
In turn, B11 yielded a Kd in the series with alpha-amylase [11] of 2.6 nM. This lies in the single-digit nanomolar range.
